Laboratory results from PMC9400903, “A Versatile Synthetic Affinity Probe Reveals Inhibitory Synapse Ultrastructure and Brain Connectivity**” (Angewandte Chemie (International Ed. in English), 2022).
Where no end group is shown, it is not given here.

B1: Sylite (peptide)
chain 1: YSIVGSYPRKC(maleimide‑Cy5)
chain 2: YSIVGSYPR
modifications: also: two chains joined via linker, linkage not given here
B2: SyliteM (peptide)
chain: FSIVGSYPRRRRRRRRR
modifications: also: fluorophore

What was measured:
eGFP-gephyrin = molecular target: T1, eGFP-gephyrin (UniProt Q03555 1-768); assay: immunostaining of cells or tissue; fixed COS-7 cells expressing eGFP-gephyrin or eGFP alone, stained with the fluorescent probes (50 nM Sylite); probe signal at eGFP-rich regions; settings: one partner purified
T1 construct: gephyrin; source: COS-7 cells, expressed, cells fixed; 'mammalian cells' for the test of SyliteCy3
T1 sequence (looked up): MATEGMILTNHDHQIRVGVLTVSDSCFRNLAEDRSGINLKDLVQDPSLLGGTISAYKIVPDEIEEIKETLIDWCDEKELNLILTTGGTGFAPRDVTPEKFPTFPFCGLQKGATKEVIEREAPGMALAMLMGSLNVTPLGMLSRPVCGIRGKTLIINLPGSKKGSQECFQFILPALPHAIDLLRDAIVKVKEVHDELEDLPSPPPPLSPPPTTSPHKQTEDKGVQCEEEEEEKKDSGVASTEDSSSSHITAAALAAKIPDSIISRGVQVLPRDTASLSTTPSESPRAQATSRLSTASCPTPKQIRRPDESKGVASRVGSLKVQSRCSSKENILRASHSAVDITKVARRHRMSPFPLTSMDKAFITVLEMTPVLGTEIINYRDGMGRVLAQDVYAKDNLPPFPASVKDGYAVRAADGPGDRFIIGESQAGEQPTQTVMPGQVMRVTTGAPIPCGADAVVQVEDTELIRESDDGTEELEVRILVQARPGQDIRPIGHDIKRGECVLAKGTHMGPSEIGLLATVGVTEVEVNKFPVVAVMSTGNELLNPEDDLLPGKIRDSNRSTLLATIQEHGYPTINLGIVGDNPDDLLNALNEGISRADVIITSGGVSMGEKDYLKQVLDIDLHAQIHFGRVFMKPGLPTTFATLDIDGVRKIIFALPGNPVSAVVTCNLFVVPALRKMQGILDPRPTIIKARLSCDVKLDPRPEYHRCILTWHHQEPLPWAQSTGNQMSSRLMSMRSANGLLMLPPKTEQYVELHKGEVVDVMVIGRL

Sylite = molecular target: B1; assay: ITC; Sylite or SyliteM titrated with purified gephyrin E domain; N=3; settings: both partners purified
SyliteM = molecular target: B2; assay: as above; settings: both partners purified

Row | Binder | signal-to-background ratio (SBR) (eGFP-gephyrin) | Kd (Sylite) [nM] | stoichiometry N (Sylite) | Kd (SyliteM) [nM]
1 | B1 | 492 | – | – | –
2 | gephyrin E domain (domain or fragment) SSKENILRASHSAVDITKVARRHRMSPFPLTSMDKAFITVLEMTPVLGTEIINYRDGMGRVLAQDVYAKDNLPPFPASVKDGYAVRAADGPGDRFIIGESQAGEQPTQTVMPGQVMRVTTGAPIPCGADAVVQVEDTELIRESDDGTEELEVRILVQARPGQDIRPIGHDIKRGECVLAKGTHMGPSEIGLLATVGVTEVEVNKFPVVAVMSTGNELLNPEDDLLPGKIRDSNRSTLLATIQEHGYPTINLGIVGDNPDDLLNALNEGISRADVIITSGGVSMGEKDYLKQVLDIDLHAQIHFGRVFMKPGLPTTFATLDIDGVRKIIFALPGNPVSAVVTCNLFVVPALRKMQGILDPRPTIIKARLSCDVKLDPRPEYHRCILTWHHQEPLPWAQSTGNQMSSRLMSMRSANGLLMLPPKTEQYVELHKGEVVDVMVIGRL | – | 17.5 | 2 gephyrin E domain per probe | 205
3 | B2 | 36 | – | – | –
